Reference: patent CN115677856A (DONGGUAN PENGZHI BIOTECHNOLOGY CO LTD, dated 2023)

B1: Ig-M-9G1RMb1抗体 (antibody, mouse IgG1, kappa, V domains shown)
VH: EVQLQQSGAELVKPGASVKLSCTTSGFSIKDAYIHWVKQRPKQGLEWIGRIDPANGYTKYDPKFQGKATITADKSSSTAYMQLRSLTSEDSAVYYCAREPLPHYYAMDYWGQGTSVTVSS
VL: DIQMTQSPSSLSASLGERVSLTCRASQEISGFLSWLQQKPDGTIKRLIYAASTLDSGVPKRFSGSTSGSDYRLKISSLESEDFADYYCIQYTSFPLTFGAGTKLELKR
notes: It was detected with goat anti-mouse IgG-HRP and captured on AMC sensors; also called 抗人IgM抗体
B2: Ig-M-9G1RMb2抗体 (antibody, V domains shown)
VH: EVQLQQSGAELVKPGASVKLSCTTSGFSIKDAYIHWVKQRPKQGLEWIGRIDPANGYTKYDPKFQGKATITADKSSSTAYMQLRSLTSEDSAVYYCAREPLPHYYAMDYWGQGTSVTVSS
VL: DIQMTQSPSSLSASLGERVSLTCRASQEISGFLSWLQQKPDGTIKRLIYAASTLDSGVPKRFSGSTSGSDYRLKISSLESEDFADYYCLQYTSFPLTFGAGTKLELKR

Molecular target: 人IgM (human, UniProt P01871 1-453)
Test: AMC sensor kinetics, antibody captured on the sensor, human IgM in graded dilutions in solution

人IgM, sequence (P01871 other isoform, or with tags, fused parts or gaps): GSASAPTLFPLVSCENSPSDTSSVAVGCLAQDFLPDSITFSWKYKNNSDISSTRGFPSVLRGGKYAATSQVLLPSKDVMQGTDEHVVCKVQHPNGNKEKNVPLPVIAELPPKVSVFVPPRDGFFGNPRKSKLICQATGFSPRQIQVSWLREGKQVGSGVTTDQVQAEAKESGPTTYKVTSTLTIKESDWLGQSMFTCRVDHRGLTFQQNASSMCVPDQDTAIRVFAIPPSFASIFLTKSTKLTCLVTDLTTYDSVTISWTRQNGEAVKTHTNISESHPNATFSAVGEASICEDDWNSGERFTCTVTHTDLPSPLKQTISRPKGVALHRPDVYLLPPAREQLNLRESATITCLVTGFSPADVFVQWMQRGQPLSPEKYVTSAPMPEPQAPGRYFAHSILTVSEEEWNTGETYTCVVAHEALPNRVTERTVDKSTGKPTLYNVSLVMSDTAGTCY

Binder	Kd [pM]	koff [s⁻¹]	kon [M⁻¹ s⁻¹]
B1	3.02	2.84e-05	9.41e+06
B2	4.27	6.07e-05	1.42e+07
